The results in this text go back to US20090192084A1.

Assay [1] deals with Cullin 2 (human) (UniProt Q13617). Briefly: Flag co-IP, MudPIT MS, DMSO.
Assay [2] shares this target. Briefly: Flag co-IP, MudPIT MS, MG132.
Another assay has as its target p97-Myc. Kind of assay: p97-Myc co-IP, 293 cells, MudPIT MS.
In another assay the target is T1, VCIP135 (human) (UniProt Q96JH7).
T1 sequence (looked up): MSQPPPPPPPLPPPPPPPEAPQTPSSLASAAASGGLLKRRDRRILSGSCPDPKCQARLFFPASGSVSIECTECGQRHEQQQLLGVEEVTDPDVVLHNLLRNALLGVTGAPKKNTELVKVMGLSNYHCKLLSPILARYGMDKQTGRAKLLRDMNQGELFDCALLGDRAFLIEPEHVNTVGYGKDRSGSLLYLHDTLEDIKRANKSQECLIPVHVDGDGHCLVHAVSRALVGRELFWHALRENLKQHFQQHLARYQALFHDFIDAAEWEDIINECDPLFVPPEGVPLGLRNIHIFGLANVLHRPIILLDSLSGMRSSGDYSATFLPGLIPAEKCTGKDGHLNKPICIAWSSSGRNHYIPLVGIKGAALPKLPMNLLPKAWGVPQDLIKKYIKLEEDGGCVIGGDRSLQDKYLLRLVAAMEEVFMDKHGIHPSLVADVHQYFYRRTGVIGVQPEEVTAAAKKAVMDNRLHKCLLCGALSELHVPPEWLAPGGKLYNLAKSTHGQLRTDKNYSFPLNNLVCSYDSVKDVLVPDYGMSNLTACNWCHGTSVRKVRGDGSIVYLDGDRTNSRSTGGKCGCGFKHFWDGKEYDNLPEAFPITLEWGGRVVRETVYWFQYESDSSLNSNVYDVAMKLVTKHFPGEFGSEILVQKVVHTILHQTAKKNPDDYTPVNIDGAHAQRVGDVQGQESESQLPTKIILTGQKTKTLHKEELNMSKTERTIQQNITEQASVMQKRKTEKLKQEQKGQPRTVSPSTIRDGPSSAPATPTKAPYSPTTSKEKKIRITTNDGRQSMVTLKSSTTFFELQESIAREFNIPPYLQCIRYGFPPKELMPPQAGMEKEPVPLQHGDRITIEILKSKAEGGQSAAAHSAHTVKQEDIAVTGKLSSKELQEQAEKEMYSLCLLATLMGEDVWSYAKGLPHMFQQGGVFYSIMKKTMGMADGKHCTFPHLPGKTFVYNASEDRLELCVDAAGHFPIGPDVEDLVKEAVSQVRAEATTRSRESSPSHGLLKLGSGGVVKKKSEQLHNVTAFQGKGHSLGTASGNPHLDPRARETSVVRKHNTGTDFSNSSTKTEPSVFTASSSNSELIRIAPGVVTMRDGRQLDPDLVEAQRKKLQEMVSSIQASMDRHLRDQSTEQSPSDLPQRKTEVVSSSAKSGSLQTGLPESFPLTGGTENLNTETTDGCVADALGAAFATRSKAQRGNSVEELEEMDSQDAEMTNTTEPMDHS
Kind of assay: Flag co-IP, 293 cells, MudPIT MS.

Cullin 2 (human), sequence (Q13617 whole entry): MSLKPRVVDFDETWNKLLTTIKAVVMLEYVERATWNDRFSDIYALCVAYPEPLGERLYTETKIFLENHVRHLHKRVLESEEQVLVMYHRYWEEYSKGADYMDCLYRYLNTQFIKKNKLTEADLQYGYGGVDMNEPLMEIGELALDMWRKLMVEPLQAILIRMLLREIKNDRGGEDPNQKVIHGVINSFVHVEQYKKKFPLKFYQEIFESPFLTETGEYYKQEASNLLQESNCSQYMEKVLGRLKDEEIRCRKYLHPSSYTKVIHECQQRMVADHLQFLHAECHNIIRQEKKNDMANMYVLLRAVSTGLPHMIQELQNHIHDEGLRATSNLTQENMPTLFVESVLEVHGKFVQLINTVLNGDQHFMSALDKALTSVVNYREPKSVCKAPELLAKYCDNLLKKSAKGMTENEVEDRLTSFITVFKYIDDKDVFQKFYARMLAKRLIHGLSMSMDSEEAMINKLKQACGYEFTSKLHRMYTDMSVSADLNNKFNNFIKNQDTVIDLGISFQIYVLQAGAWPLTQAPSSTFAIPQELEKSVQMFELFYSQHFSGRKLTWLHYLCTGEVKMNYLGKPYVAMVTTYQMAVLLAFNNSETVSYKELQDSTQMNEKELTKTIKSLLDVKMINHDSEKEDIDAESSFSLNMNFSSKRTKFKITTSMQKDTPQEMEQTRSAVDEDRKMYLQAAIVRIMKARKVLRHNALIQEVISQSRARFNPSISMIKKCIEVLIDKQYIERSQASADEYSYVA
p97-Myc, sequence (Q01853 2-806): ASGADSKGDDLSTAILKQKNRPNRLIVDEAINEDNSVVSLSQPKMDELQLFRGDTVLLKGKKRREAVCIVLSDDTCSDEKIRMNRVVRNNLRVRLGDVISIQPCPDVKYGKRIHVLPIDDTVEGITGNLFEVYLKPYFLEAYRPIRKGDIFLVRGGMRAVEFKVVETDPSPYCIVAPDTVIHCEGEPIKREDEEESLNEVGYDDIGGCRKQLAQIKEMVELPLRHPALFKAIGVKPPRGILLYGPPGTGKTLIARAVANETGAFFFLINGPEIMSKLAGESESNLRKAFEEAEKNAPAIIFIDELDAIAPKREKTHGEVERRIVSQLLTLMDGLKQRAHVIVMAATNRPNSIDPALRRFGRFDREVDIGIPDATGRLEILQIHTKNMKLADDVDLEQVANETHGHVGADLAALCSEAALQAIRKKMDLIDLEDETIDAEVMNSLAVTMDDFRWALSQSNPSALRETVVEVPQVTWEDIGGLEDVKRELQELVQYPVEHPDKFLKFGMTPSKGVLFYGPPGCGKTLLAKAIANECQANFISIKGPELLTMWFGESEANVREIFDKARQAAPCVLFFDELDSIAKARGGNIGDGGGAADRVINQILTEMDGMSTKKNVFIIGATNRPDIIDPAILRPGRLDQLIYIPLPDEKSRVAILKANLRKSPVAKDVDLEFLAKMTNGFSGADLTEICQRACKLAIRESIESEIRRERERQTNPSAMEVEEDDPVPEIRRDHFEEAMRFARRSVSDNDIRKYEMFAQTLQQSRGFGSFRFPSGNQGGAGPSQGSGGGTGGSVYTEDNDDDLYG

B1: Flag-SAKS1 (protein, UniProt Q04323 1-297, looked up, not shown: small tags and cut ends)
chain: MAELTALESLIEMGFPRGRAEKALALTGNQGIEAAMDWLMEHEDDPDVDEPLETPLGHILGREPTSSEQGGLEGSGSAAGEGKPALSEEERQEQTKRMLELVAQKQREREEREEREALERERQRRRQGQELSAARQRLQEDEMRRAAEERRREKAEELAARQRVREKIERDKAERAKKYGGSVGSQPPPVAPEPGPVPSSPSQEPPTKREYDQCRIQVRLPDGTSLTQTFRAREQLAAVRLYVELHRGEELGGGQDPVQLLSGFPRRAFSEADMERPLQELGLVPSAVLIVAKKCPS
As to B1, in the assay with Cullin 2 (human) [1], the abundance factor (AF) was determined as 3.7, the sequence count turned out to be 3 and the spectrum count amounted to 4. In the assay with Cullin 2 (human) [2], this molecule came in with an abundance factor (AF) of 5.5, a sequence count of 4 and a spectrum count of 11.

B2: endogenous p47 (protein, human, UniProt Q9UNZ2 1-370, looked up)
chain: MAAERQEALREFVAVTGAEEDRARFFLESAGWDLQIALASFYEDGGDEDIVTISQATPSSVSRGTAPSDNRVTSFRDLIHDQDEDEEEEEGQRFYAGGSERSGQQIVGPPRKKSPNELVDDLFKGAKEHGAVAVERVTKSPGETSKPRPFAGGGYRLGAAPEEESAYVAGEKRQHSSQDVHVVLKLWKSGFSLDNGELRSYQDPSNAQFLESIRRGEVPAELRRLAHGGQVNLDMEDHRDEDFVKPKGAFKAFTGEGQKLGSTAPQVLSTSSPAQQAENEAKASSSILIDESEPTTNIQIRLADGGRLVQKFNHSHRISDIRLFIVDARPAMAATSFILMTTFPNKELADESQTLKEANLLNAVIVQRLT
As for B2, in the assay with p97-Myc, the sequence count was 19, the sequence coverage was determined as 52.2% and the spectrum count amounted to 153.

B3: endogenous UBXD8 (protein, human, UniProt Q96CS3 2-445, looked up)
chain: AAPEERDLTQEQTEKLLQFQDLTGIESMDQCRHTLEQHNWNIEAAVQDRLNEQEGVPSVFNPPPSRPLQVNTADHRIYSYVVSRPQPRGLLGWGYYLIMLPFRFTYYTILDIFRFALRFIRPDPRSRVTDPVGDIVSFMHSFEEKYGRAHPVFYQGTYSQALNDAKRELRFLLVYLHGDDHQDSDEFCRNTLCAPEVISLINTRMLFWACSTNKPEGYRVSQALRENTYPFLAMIMLKDRRMTVVGRLEGLIQPDDLINQLTFIMDANQTYLVSERLEREERNQTQVLRQQQDEAYLASLRADQEKERKKREERERKRRKEEEVQQQKLAEERRRQNLQEEKERKLECLPPEPSPDDPESVKIIFKLPNDSRVERRFHFSQSLTVIHDFLFSLKESPEKFQIEANFPRRVLPCIPSEEWPNPPTLQEAGLSHTEVLFVQDLTDE
In the assay with p97-Myc, B3 displayed a sequence count of 11, a sequence coverage of 33.7% and a spectrum count of 12.

B4: endogenous UBXD4 (protein, human, UniProt P68543 1-259, looked up)
chain: MKDVDNLKSIKEEWVCETGSDNQPLGNNQQSNCEYFVDSLFEEAQKVSSKCVSPAEQKKQVDVNIKLWKNGFTVNDDFRSYSDGASQQFLNSIKKGELPSELQGIFDKEEVDVKVEDKKNEICLSTKPVFQPFSGQGHRLGSATPKIVSKAKNIEVENKNNLSAVPLNNLEPITNIQIWLANGKRIVQKFNITHRVSHIKDFIEKYQGSQRSPPFSLATALPVLRLLDETLTLEEADLQNAVIIQRLQKTASFRELSEH
B4: in the assay with p97-Myc, the sequence count came to 4, the sequence coverage is 19.3% and the spectrum count amounted to 5.

B5: endogenous p37 (protein, human, UniProt Q14CS0 2-331, looked up)
chain: AEGGGPEPGEQERRSSGPRPPSARDLQLALAELYEDEVKCKSSKSNRPKATVFKSPRTPPQRFYSSEHEYSGLNIVRPSTGKIVNELFKEAREHGAVPLNEATRASGDDKSKSFTGGGYRLGSSFCKRSEYIYGENQLQDVQILLKLWSNGFSLDDGELRPYNEPTNAQFLESVKRGEIPLELQRLVHGGQVNLDMEDHQDQEYIKPRLRFKAFSGEGQKLGSLTPEIVSTPSSPEEEDKSILNAVVLIDDSVPTTKIQIRLADGSRLIQRFNSTHRILDVRNFIVQSRPEFAALDFILVTSFPNKELTDESLTLLEADILNTVLLQQLK
As for B5, in the assay with p97-Myc, the sequence count stood at 6, the sequence coverage is 32.3% and the spectrum count turned out to be 7.

B6: endogenous SAKS1 (protein, human, UniProt Q04323 2-297, looked up)
chain: AELTALESLIEMGFPRGRAEKALALTGNQGIEAAMDWLMEHEDDPDVDEPLETPLGHILGREPTSSEQGGLEGSGSAAGEGKPALSEEERQEQTKRMLELVAQKQREREEREEREALERERQRRRQGQELSAARQRLQEDEMRRAAEERRREKAEELAARQRVREKIERDKAERAKKYGGSVGSQPPPVAPEPGPVPSSPSQEPPTKREYDQCRIQVRLPDGTSLTQTFRAREQLAAVRLYVELHRGEELGGGQDPVQLLSGFPRRAFSEADMERPLQELGLVPSAVLIVAKKCPS
Take B6: in the assay with p97-Myc, the sequence count was 2, the sequence coverage amounted to 19.5% and the spectrum count is 2.

B7: Flag-UBXD8 (protein, UniProt Q96CS3 1-445, looked up, not shown: small tags and cut ends)
chain: MAAPEERDLTQEQTEKLLQFQDLTGIESMDQCRHTLEQHNWNIEAAVQDRLNEQEGVPSVFNPPPSRPLQVNTADHRIYSYVVSRPQPRGLLGWGYYLIMLPFRFTYYTILDIFRFALRFIRPDPRSRVTDPVGDIVSFMHSFEEKYGRAHPVFYQGTYSQALNDAKRELRFLLVYLHGDDHQDSDEFCRNTLCAPEVISLINTRMLFWACSTNKPEGYRVSQALRENTYPFLAMIMLKDRRMTVVGRLEGLIQPDDLINQLTFIMDANQTYLVSERLEREERNQTQVLRQQQDEAYLASLRADQEKERKKREERERKRRKEEEVQQQKLAEERRRQNLQEEKERKLECLPPEPSPDDPESVKIIFKLPNDSRVERRFHFSQSLTVIHDFLFSLKESPEKFQIEANFPRRVLPCIPSEEWPNPPTLQEAGLSHTEVLFVQDLTDE
In the assay with Cullin 2 (human) [1], B7 yielded an abundance factor (AF) of 2.4, a sequence count of 4 and a spectrum count of 12. Moreover, in the assay with Cullin 2 (human) [2], the abundance factor (AF) worked out at 10.3, the sequence count is 8 and the spectrum count came out at 38.

B8: Flag-p47 (protein, UniProt O35987 1-370, looked up, not shown: small tags and cut ends)
chain: MAEERQDALREFVAVTGAEEDRARFFLESAGWDLQIALASFYEDGGDEDIVTISQATPSSVSRGTAPSDNRVTSFRDLIHDQDEEEEEEEGQRFYAGGSERSGQQIVGPPRKKSPNELVDDLFKGAKEHGAVAVERVTKSPGETSKPRPFAGGGYRLGAAPEEESAYVAGERRRHSGQDVHVVLKLWKTGFSLDNGDLRSYQDPSNAQFLESIRRGEVPAELRRLAHGGQVNLDMEDHRDEDFVKPKGAFKAFTGEGQKLGSTAPQVLNTSSPAQQAENEAKASSSILINEAEPTTNIQIRLADGGRLVQKFNHSHRISDIRLFIVDARPAMAATSFVLMTTFPNKELADENQTLKEANLLNAVIVQRLT
As for B8, in the assay with VCIP135 (human), the sequence count worked out at 14, the sequence coverage was 17.6% and the spectrum count worked out at 15.
